The record followed here is patent publication US20040170969A1 (published 2004).

The labels stand for the following.
B4: DKFZp434D174.1 (GI 7512558) (other, UniProt P57678 1-1058, looked up)
chain: MDLGPLNICEEMTILHGGFLLAEQLFHPKALAELTKSDWERVGRPIVEALREISSAAAHSQPFAWKKKALIIIWAKVLQPHPVTPSDTETRWQEDLFFSVGNMIPTINHTILFELLKSLEASGLFIQLLMALPTTICHAELERFLEHVTVDTSAEDVAFFLDVWWEVMKHKGHPQDPLLSQFSAMAHKYLPALDEFPHPPKRLRSDPDACPTMPLLAMLLRGLTQIQSRILGPGRKCCALANLADMLTVFALTEDDPQEVSATVYLDKLATVISVWNSDTQNPYHQQALAEKVKEAERDVSLTSLAKLPSETIFVGCEFLHHLLREWGEELQAVLRSSQGTSYDSYRLCDSLTSFSQNATLYLNRTSLSKEDRQVVSELAECVRDFLRKTSTVLKNRALEDITASIAMAVIQQKMDRHMEVCYIFASEKKWAFSDEWVACLGSNRALFRQPDLVLRLLETVIDVSTADRAIPESQIRQVIHLILECYADLSLPGKNKVLAGILRSWGRKGLSEKLLAYVEGFQEDLNTTFNQLTQSASEQGLAKAVASVARLVIVHPEVTVKKMCSLAVVNLGTHKFLAQILTAFPALRFVEEQGPNSSATFMVSCLKETVWMKFSTPKEEKQFLELLNCLMSPVKPQGIPVAALLEPDEVLKEFVLPFLRLDVEEVDLSLRIFIQTLEANACREEYWLQTCSPFPLLFSLCQLLDRFSKYWQLPKEKRCLSLDRKDLAIHILELLCEIVSANAETFSPDVWIKSLSWLHRKLEQLDWTVGLRLKSFFEGHFKCEVPATLFEICKLSEDEWTSQAHPGYGAGTGLLAWMECCCVSSGISERMLSLLVVDVGNPEEVRLFSKGFLVALVQVMPWCSPQEWQRLHQLTRRLLEKQLLHVPYSLEYIQFVPLLNLKPFAQELQLSVLFLRTFQFLCSHSCRDWLPLEGWNHVVKLLCGSLTRLLDSVRAIQAAGPWVQGPEQDLTQEALFVYTQVFCHALHIMAMLHPEVCEPLYVLALETLTCYETLSKTNPSVSSLLQRAHEQRFLKSIAEGIGPEERRQTLLQKMSSF
notes: also called gemin4; gemin 4

In test [1] the target is B4. Description: anti-FLAG co-IP, MS.
Procedure: (§1) Forty-eight hours (h or hr) later, transfected cells (approximately 1×10⁸ cells) were washed in Tris-Saline (25 mM Tris-HCl pH 7.5, 140 mM NaCl, 8 mM KCl, 700 μM Na₂HPO₄, 5.5 mM glucose) and lysed in Lysis Buffer (KLB, 20 mM Tris-HCl pH7.5, 150 mM NaCl, 1% NP40, 0.5% sodium deoxycholate, and 0.2 mM AEBSF (4-(2-aminoethyl)-benzenesulfonyl fluoride)). Following centrifugation to remove insoluble material, clarified lysates were incubated with Sepharose-4B (10 μl packed sepharose/ml of lysate) for 20 min at 4° C. with gentle mixing (by end-over-end inversion). The supernatant was then incubated with immobilized anti-Flag monoclonal antibodies (M2-agarose, Sigma-Aldrich; 1 μl packed M2-agarose/ml lysate) for 60 min at 4° C. with gentle mixing. The M2-agarose was washed two times with 1 ml KLB lacking AEBSF, and washed one time with 1 ml of 50 mM ammonium bicarbonate. […] After 30 min at 4° C., the M2-agarose beads were removed by centrifugation, the eluted proteins were lyophilized by vacuum centrifugation and resuspended in SDS-PAGE sample buffer.
Test [2] concerns the target T1, Flag-epitope-tagged murine Ras-GRF2 (murine, UniProt P70392 1-1189, limits assumed).
T1 construct: Bait; expressed stably (Clone 13, Clone 21) or transiently in human 293 cells; also called Flag-GRF2; FLAG-GRF2
T1 sequence (looked up): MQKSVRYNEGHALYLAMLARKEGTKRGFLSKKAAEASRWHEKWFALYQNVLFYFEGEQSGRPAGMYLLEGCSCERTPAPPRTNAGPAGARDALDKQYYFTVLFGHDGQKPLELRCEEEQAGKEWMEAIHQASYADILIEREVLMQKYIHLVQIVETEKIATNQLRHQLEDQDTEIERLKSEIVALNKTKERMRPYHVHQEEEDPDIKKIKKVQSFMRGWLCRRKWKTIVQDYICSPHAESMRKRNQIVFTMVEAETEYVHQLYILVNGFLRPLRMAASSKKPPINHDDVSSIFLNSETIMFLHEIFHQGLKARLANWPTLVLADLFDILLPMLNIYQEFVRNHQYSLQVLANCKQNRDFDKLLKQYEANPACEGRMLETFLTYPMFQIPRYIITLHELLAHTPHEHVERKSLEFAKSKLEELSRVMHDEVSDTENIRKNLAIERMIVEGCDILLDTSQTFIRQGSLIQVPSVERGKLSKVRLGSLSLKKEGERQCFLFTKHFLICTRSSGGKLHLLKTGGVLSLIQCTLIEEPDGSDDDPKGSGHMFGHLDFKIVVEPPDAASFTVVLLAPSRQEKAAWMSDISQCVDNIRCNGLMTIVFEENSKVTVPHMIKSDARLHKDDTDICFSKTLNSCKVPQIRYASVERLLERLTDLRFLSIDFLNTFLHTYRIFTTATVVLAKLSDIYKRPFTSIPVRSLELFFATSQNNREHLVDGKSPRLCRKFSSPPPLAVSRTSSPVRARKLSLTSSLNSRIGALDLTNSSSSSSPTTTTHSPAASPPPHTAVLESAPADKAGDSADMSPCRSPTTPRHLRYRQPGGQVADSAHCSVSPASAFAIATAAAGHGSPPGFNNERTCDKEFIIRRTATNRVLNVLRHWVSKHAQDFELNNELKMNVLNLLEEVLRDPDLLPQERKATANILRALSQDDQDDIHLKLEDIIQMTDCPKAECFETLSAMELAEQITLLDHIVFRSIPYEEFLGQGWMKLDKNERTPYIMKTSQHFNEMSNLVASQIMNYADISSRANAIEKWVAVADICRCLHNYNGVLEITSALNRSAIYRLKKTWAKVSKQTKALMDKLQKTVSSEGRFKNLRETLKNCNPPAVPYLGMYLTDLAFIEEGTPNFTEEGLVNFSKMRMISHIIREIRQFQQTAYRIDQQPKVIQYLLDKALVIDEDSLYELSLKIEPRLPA
Briefly: anti-FLAG co-IP, MS.
Procedure: as §1

B1: FLAG-Ndr (cells treated with okadaic acid) (enzyme, not shown: small tags and cut ends)
chain: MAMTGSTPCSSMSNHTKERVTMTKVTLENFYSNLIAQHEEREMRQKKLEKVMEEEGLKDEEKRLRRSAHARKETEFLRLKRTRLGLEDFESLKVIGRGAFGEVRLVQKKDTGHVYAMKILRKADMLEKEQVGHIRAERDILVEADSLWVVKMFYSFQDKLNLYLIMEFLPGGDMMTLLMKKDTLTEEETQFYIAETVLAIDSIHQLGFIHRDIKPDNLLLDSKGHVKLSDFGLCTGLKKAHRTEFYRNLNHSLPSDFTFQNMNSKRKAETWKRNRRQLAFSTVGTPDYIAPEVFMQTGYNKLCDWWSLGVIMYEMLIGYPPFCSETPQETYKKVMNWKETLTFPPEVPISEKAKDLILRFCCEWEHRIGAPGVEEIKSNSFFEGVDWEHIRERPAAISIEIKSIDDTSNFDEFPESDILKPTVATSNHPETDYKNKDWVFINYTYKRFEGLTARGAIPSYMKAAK
notes: also called Ndr bait; active Ndr
As for B1, the binding result in test [1] was “no binding”.

B2: FLAG-PP2C (enzyme, human, UniProt O75688 1-479, looked up, not shown: small tags and cut ends)
chain: MGAFLDKPKTEKHNAHGAGNGLRYGLSSMQGWRVEMEDAHTAVVGIPHGLEDWSFFAVYDGHAGSRVANYCSTHLLEHITTNEDFRAAGKSGSALELSVENVKNGIRTGFLKIDEYMRNFSDLRNGMDRSGSTAVGVMISPKHIYFINCGDSRAVLYRNGQVCFSTQDHKPCNPREKERIQNAGGSVMIQRVNGSLAVSRALGDYDYKCVDGKGPTEQLVSPEPEVYEILRAEEDEFIILACDGIWDVMSNEELCEYVKSRLEVSDDLENVCNWVVDTCLHKGSRDNMSIVLVCFSNAPKVSDEAVKKDSELDKHLESRVEEIMEKSGEEGMPDLAHVMRILSAENIPNLPPGGGLAGKRNVIEAVYSRLNPHRESDGASDEAEESGSQGKLVEALRQMRINHRGNYRQLLEEMLTSYRLAKVEGEESPAEPAATATSSNSDAGNPVTMQESHTESESGLAELDSSNEDAGTKMSGEKI
notes: also called PP2C bait
For B2, in test [1], the binding result is on record as “no binding”.

B3: FLAG-Ndr (K118A) mutant fusion protein (enzyme, not shown: small tags and cut ends)
chain: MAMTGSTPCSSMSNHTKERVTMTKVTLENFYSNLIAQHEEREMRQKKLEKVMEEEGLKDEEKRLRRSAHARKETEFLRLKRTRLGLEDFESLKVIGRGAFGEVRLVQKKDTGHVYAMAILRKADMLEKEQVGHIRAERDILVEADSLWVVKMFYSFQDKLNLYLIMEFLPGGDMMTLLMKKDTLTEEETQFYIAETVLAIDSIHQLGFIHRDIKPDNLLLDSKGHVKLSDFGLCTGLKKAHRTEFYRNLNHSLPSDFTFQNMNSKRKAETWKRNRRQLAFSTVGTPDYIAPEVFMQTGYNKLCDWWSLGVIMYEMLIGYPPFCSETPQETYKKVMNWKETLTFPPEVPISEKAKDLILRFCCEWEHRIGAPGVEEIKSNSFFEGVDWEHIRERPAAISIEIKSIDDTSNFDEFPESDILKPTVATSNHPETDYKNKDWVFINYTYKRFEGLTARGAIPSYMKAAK
notes: also called K118A Ndr
In the case of B3, the binding result in test [1] is on record as “no binding”.

Take B4: the binding result in test [2] was “no binding”.

B5: protein 4.1 isoB (GI 182074) (other, UniProt P11171-3 1-641, looked up)
chain: MHCKVSLLDDTVYECVVEKHAKGQDLLKRVCEHLNLLEEDYFGLAIWDNATSKTWLDSAKEIKKQVRGVPWNFTFNVKFYPPDPAQLTEDITRYYLCLQLRQDIVAGRLPCSFATLALLGSYTIQSELGDYDPELHGVDYVSDFKLAPNQTKELEEKVMELHKSYRSMTPAQADLEFLENAKKLSMYGVDLHKAKDLEGVDIILGVCSSGLLVYKDKLRINRFPWPKVLKISYKRSSFFIKIRPGEQEQYESTIGFKLPSYRAAKKLWKVCVEHHTFFRLTSTDTIPKSKFLALGSKFRYSGRTQAQTRQASALIDRPAPHFERTASKRASRSLDGAAAVDSADRSPRPTSAPAITQGQVAEGGVLDASAKKTVVPKAQKETVKAEVKKEDEPPEQAEPEPTEAWKVEKTHIEVTVPTSNGDQTQKKRERLDGENIYIRHSNLMLEDLDKSQEEIKKHHASISELKKNFMESVPEPRPSEWDKRLSTHSPFRTLNINGQIPTGEGPPLVKTQTVTISDNANAVKSEIPTKDVPIVHTETKTITYEAAQTDDNSGDLDPGVLLTAQTITSETPSSTTTTQITKTVKGGISETRIEKRIVITGDADIDHDQVLVQAIKEAKEQHPDMSVTKVVVHQETEIADE
notes: also called Erythroid protein 4.1 isoform B
On to B5, for which the binding result in test [2] is recorded as “no binding”.
